According to article PMC9056527, “Aptamer loaded superparamagnetic beads for selective capturing and gentle release of activated protein C”:

Assays:
human α-thrombin (human) = human α-thrombin (human) (UniProt P00734)
[1] = target: T1, activated protein C (APC) (UniProt P04070;P04070 43-197;212-461); assay: BLI; dissociation in binding buffer (Ca2+); 500 nM APC; Binding buffer with Ca2+ (composition not in material); elution buffer 10 mM Tris-HCl, 144 mM NaCl, pH 7.4, 5 mM EDTA; bead capture at RT, 30 min; conditions: protein: commercial; copies: 1;1; label: 3'-TEG-biotin
[2] = target: protein C (PC, zymogen, Ceprotin) (UniProt P04070;P04070 43-197;200-461); assay: pull-down (aptamer-loaded magnetic beads); PC activation mixture; PC in eluate below <0.2-0.24 µg/ml; Binding buffer with Ca2+ (composition not in material); elution buffer 10 mM Tris-HCl, 144 mM NaCl, pH 7.4, 5 mM EDTA; bead capture at RT, 30 min; conditions: protein: commercial; copies: 1;1
[3] = target: T1, activated protein C (APC); assay: pull-down (aptamer-loaded magnetic beads); Ca2+ binding buffer; eluted with 5 mM EDTA; Binding buffer with Ca2+ (composition not in material); elution buffer 10 mM Tris-HCl, 144 mM NaCl, pH 7.4, 5 mM EDTA; bead capture at RT, 30 min; conditions: protein: commercial; copies: 1;1
[4] = target: T1, activated protein C (APC); assay: pull-down (aptamer-loaded magnetic beads); Ca2+ binding buffer; 10 µg APC; Binding buffer with Ca2+ (composition not in material); elution buffer 10 mM Tris-HCl, 144 mM NaCl, pH 7.4, 5 mM EDTA; bead capture at RT, 30 min; conditions: protein: commercial; copies: 1;1

T1 sequence (P04070 43-197, chain 1 of 2): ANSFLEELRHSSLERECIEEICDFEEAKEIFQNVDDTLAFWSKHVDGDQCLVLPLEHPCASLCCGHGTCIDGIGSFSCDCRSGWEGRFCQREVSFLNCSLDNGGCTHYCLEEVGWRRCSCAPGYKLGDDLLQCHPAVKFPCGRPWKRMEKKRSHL
T1 sequence (P04070 212-461, chain 2 of 2): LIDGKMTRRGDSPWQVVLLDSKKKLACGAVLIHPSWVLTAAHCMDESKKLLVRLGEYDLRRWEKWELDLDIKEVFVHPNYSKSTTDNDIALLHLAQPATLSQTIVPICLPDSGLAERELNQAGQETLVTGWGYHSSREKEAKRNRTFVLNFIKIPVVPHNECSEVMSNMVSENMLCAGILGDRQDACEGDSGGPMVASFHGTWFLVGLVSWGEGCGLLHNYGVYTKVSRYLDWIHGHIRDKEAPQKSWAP
protein C (PC, zymogen, Ceprotin), sequence (P04070 43-197, chain 1 of 2): as the sequence (P04070 43-197, chain 1 of 2) above
protein C (PC, zymogen, Ceprotin), sequence (P04070 200-461, chain 2 of 2): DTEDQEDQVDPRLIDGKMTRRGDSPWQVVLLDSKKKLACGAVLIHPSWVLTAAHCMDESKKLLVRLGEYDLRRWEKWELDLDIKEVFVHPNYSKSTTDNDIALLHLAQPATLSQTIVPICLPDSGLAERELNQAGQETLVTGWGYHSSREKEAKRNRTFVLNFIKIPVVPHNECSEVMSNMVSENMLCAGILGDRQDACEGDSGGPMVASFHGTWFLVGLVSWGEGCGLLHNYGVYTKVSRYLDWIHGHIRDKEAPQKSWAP

For “recombinant hirudin (Refludan, Bayer Health Care) (natural protein)”, the IC50 of hirudin for thrombin-catalysed hydrolysis of the fluorogenic substrate Boc-Asp(OBzl)-Pro-Arg-AMC; 2.5 µg/ml (68 nM) thrombin, hirudin 14 nM to 14 µM, 30 min in activation buffer (human α-thrombin (human)) was 170 nM, the IC50 of hirudin for thrombin-catalysed hydrolysis of the fluorogenic substrate Boc-Asp(OBzl)-Pro-Arg-AMC; 12.5 µg/ml (341 nM) thrombin, hirudin 14 nM to 14 µM, 30 min in activation buffer (human α-thrombin (human)) was 1960 nM and the IC50 of hirudin for thrombin-catalysed hydrolysis of the fluorogenic substrate Boc-Asp(OBzl)-Pro-Arg-AMC; 20 µg/ml (545 nM) thrombin, hirudin 14 nM to 14 µM, 30 min in activation buffer (human α-thrombin (human)) was 2260 nM.

B1: HS02-52G (ssDNA)
DNA: GCCTCCTAACTGAGCTGTACTCGACTTATCCCGGATGGGGCTCTTAGGAGGC
B1: binds [1].

B2: HS02-52G-NH2 (ssDNA)
DNA: GCCTCCTAACTGAGCTGTACTCGACTTATCCCGGATGGGGCTCTTAGGAGGC
modifications: 3'-HEG-amino
B2: no binding [2]; binds [3].

B3: AD02-52 (antisense control) (ssDNA)
DNA: GCCTCCTAAGAGCCCCATCCGGGATAAGTCGAGTACAGCTCAGTTAGGAGGC
modifications: 3'-HEG-amino
B3: no binding [4].
